Data taken from patent US20220112273A1 (University of Pennsylvania, published 2022).

How the values were obtained:
[1] = molecular target: recombinant HIV-1 Env (subtype B; MN) protein (HIV-1 (subtype B, MN), UniProt P05877 32-513); experiment: binding ELISA, serial dilutions of day 14 mouse sera (FIG. 64A)
[2] = molecular target: Env of pseudotyped HIV-1 Bal26 virus (clade B, tier 1) (HIV-1 (clade B, Bal26)); experiment: cell-based or functional assay
[3] = molecular target: Env of pseudotyped HIV-1 Q23Env17 virus (clade A, tier 1) (HIV-1 (clade A, Q23Env17)); experiment: cell-based or functional assay
[4] = molecular target: Env of pseudotyped HIV-1 SF162S virus (clade B, tier 1) (HIV-1 (clade B, SF162S)); experiment: cell-based or functional assay

B1: CHIKV-Env-Fab (Fab, V domains shown)
VH: QVQLVQSGSELKKPGASVKVSCKASGYTLTRYAMTWVRQAPGQGLEWMGWINTYTGNPTYVQGFTGRFVFSLDTSVSTAFLHITSLKAEDTAVYFCAREGGARGFDYWGQGTLVTVSS
VL: QSVLTQPPSVSGAPGQRVTISCTGSSSNIGASHDVHWYQQLPGTAPTLLIYVNSNRPSGVPDRFSGSKSGTSASLAITGLQAEDEADYYCQSYDSNLSGSAVFGGGTKLTVLG
Question: Does B1 bind [1]?
Answer: no binding

B2: CHIKV-IgG (full-length anti-CHIKV Env human IgG from a single plasmid) (antibody, V domains shown)
VH: QVQLQQPGAALVKPGASAMMSCKASGYTFTSYWITWVKQRPGQGLEWIGDIYPGTGRTIYKEKFKTKATLTVDTSSSTAFMQLNSLTSEDSAVYYCARGYGSPYYALDYWGQGTSVTVSS
VL: DIVLTQSPASLAVSQGQRATISCKASQSVDYDGDSYVNWYQQKPGQSPKLLIYDASNLESGIPARFSGSGSGTDFTLNIHPVEEEDVATYYCQESNEDPRTFGGGTKLEIKR
Question: Does B2 bind [1]?
Answer: no binding

B3: HIV-1 Env-Fab (Fab generated from the VRC01 antibody, expressed from pHIV-1Env-Fab) (Fab, V domains shown)
VH: QVQLVQSGGQMKKPGESMRISCRASGYEFIDCTLNWIRLAPGKRPEWMGWLKPRGGAVNYARPLQGRVTMTRDVYSDTAFLELRSLTVDDTAVYFCTRGKNCDYNWDFEHWGRGTPVIVSS
VL: QIVLTQSPGTLSLSPGETAIISCRTSQYGSLAWYQQRPGQAPRLVIYSGSTRAAGIPDRFSGSRWGPDYNLTISNLESGDFGVYYCQQYEFFGQGTKVQVDI
Question: Which results are given for B3?
Answer: plateau percent neutralization (TZM-Bl luciferase assay, sera at 1:50) [2]: ~62%; plateau percent neutralization (TZM-Bl luciferase assay, sera at 1:50) [3]: ~60%; plateau percent neutralization (TZM-Bl luciferase assay, sera at 1:50) [4]: ~70%
